The series is described as follows: soluble fraction after stress (log2 fold change); higher = more stays soluble; pooled small domains, quantitative proteomics. As to conditions: stress: 50 degC. In short, it runs like this: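 The stress applied to every library was 50°C. These custom libraries of small protein domains were pooled and measured at high throughput with quantitative proteomics as the read-out. Aggregation propensity is expressed as the base-two logarithm of the fold change in how much of each protein remains soluble. The higher the value, the more of that protein stays in solution.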

“HMHDYNTIVGVIEMRDKNIPLTSIRQRYGIGYSGIDLILTRYKDSGLTLKEFLALDPSQAEELIYPPK”: the “soluble fraction (log2)” value is -0.622.

Regarding “HMRPDDPYLVIGASREMGDEELKRHYRRLVAETHPDRGIARGLPAEAIAIATRRLAAINAAWDAIERERGL”, the “soluble fraction (log2)” value came to 0.035.

As to “HMHFEWNELRKAINDFLAEQNMNEDKQLGPYFIQRDIVVPETGTEIDSKKFSEVFKHKVIMYLFDDAAKQ”, the “soluble fraction (log2)” value was -0.0513.

For “HMEETLRELAVKISKQVIKTGRNSVLEPMNPYERRIIHAVISEIEGVSSKSVGEDPNRKVVIMSTNP”, the “soluble fraction (log2)” value is -0.126.

“HMKKIDVEVVRSQLIAWMADNGKSQAEVSKSMGISASALSMFIKGTYTGDNEQIGRKAAALMDLVHRQSA”: the “soluble fraction (log2)” value was 0.0121.

For “HMRRGFGYVRKLPSGRWQASFVGPDLARHSAPHTFETKGDAEGWLGRRQADVVAGEWRPPVP”, the “soluble fraction (log2)” value stood at 0.205.

“HMTSPVEDLLDKAIQLYREENFEEAIAKWEEVLALDPSKLEAKFNIEIAQDRIKEKQIQEDLKSS”: the “soluble fraction (log2)” value turned out to be 0.0629.

Take “HMKLTPKQQQIYDFISSFADEHGYPPSVREIAQAVNLKSPATVHFHLKGLREAGYISQAEGKTRAITI”: the “soluble fraction (log2)” value is -0.117.

On to “HMVEPDELTEREREVLQFVARGLSNKEIGAALALSPHTIKAHLRSILDKLHLRSRAEAAAWAVRSGLS”, for which the “soluble fraction (log2)” value was -0.143.

Turning to “HMSNDRSYLARLQDYYAEHRALPSYASIGALLGLRSKSSVAALVARLKLAGFVESTPDRRLAPTRRFF”, the “soluble fraction (log2)” value is -3.24.

As for “HMNEWSIDINLADEKQWTAKTKLSPAIIQNIIRYKNYLGGFTNLNQIKKVYGFTEANYYLLKPHLQLGK”, the “soluble fraction (log2)” value is -0.909.

For the sequence “HMVNDQSIYASEGYVHIRSGKPVSLRIYTILGALYRHEERLVGDHVIALPRGLYIVVLNHTAKKIMV”, the “soluble fraction (log2)” value was -1.01.

In the case of “HMGAPAISYSKFLEQVDRKNVASVTIYKDGRIDGVMTSGSRFATESPSDPGLVGDLLKAGVEIRAKPP”, the “soluble fraction (log2)” value turned out to be 0.126.

For the sequence “HMSDKPRYYINGNTLFISDKSVKKVLFSDLSGRSILHTTETAINIATFRGAHILTVIYTDGSTKSEVIF”, the “soluble fraction (log2)” value is -1.29.

Take “HMSLLTIDELSQATGVSVRTLRYYVSSGVLDKPTGETRNARYGTHHLDQVRNIKKLQEEGLTLNRILEIKK”: the “soluble fraction (log2)” value is -1.65.

For the sequence “HMSNLGLQIVRTLTDAGKGVVFITHKLKEALTIADRINVLRRGKVVGDADPKTASESQIAEMMVGRPVQL”, the “soluble fraction (log2)” value was -0.144.

On to “HMLSTRERMSSLMAQLQVQQFMPFHRLFTISEGRMGVIVTFLAMMELVKENLIKLIQAQEYGPIHVSLG”, for which the “soluble fraction (log2)” value was 0.0428.

“HMEWEVHSVTVTPELSGERLDVAATALLSQFSRALVQRWIDANELTLNERPVKAKSKVRVGDLIAVKAK”: the “soluble fraction (log2)” value was -0.874.

For “HMRKSLGEIVFDRMERAIKSGAYSPDERLPTELDLAAEFEVSRPVIRDALKRLRERGLIYSRQGAGSFVRA”, the “soluble fraction (log2)” value is -0.499.

Take “HMEIVQVIAQNIQDLLDKHKISVSELSGYLGISRQTLTNYLKTTSTIDSVQLVKIADFFNIPAEYLLKDH”: the “soluble fraction (log2)” value was -0.968.

Consider “HMALSGTVQNFAGGIMILIFRPFKTGDYIEALGYFGKVSEVNIVSTKLRTFDNKTIILPNGALSNGNIQNY”, for which the “soluble fraction (log2)” value is -0.889.

As to “HMQIDRLFDIVYTLLRKKSATAAELAERFGVSKRTILRDIETLSVAGIPILTSPGKGGGVSISSSF”, the “soluble fraction (log2)” value is -0.881.

For “HMEYKKKIGELLIDGNKKLKAANIDTYILDTQLLLGKVLGKDKLYLITNKDEEVSNFKEREFYSLIEKRI”, the “soluble fraction (log2)” value came out at 0.00227.

With “HMYIVVPDLSKKDINEVANILAAQSLRFQVIDSANFRSDFPKNAVISQKPLAGSEVKVNKKIYLQLNPS”, the “soluble fraction (log2)” value is -0.345.

As for “HMGLSNYEFNSISQTVKEKLEQGPLTLKALVDETAHLFAEDKVVSVVQWLIDQRDLAYDDHGLLQWKG”, the “soluble fraction (log2)” value is -0.418.

In the case of “HMEELTDSELNNLYRELFIARSNASDGVGIIEQKTIKGITYRLSNDNNYLIKELGNKEYIYKNGVWEEYT”, the “soluble fraction (log2)” value worked out at 0.0711.

Take “HMNKDEFLNELKSYLSILEDEEQADILEEYTQHIDMKISTGLSEAEAIRDFGNVSELAAQILEAY”: the “soluble fraction (log2)” value was -0.222.

Take “HMRQIMIIVLKSTATKEDSLLFKNKLEQEYGVKVNEWTGVESTVLGLIGDTTKIDIDYISAQDIVESVKRV”: the “soluble fraction (log2)” value was 0.252.

On to “HMQIAGLDDIDNRIIDLLLKNGRASYSEIGAAVGLSRTAAKNRIRALEASGIIRGYQAILDPQA”, for which the “soluble fraction (log2)” value was -0.205.

In the case of “HMTKASYKITTPSGVNVREGAGKRYAVRKAYPKGKTVTVTQTKEVNGNLWGKTSDGWFAIKYQGAVYASA”, the “soluble fraction (log2)” value was -0.97.

Consider “HMLPIMDRLITAGISINTAKKWVDKFGDKRIKQNLAYSLAKQKEGKVKTNFVGYLAKAIEEDWGSGWE”, for which the “soluble fraction (log2)” value is -0.557.

Take “HMETISEIWRLIDGLDEIYRVPLTMYYRSNRSVREIAETLGLSARTVETRIYRARRMIREKWSN”: the “soluble fraction (log2)” value is -2.23.

For the sequence “HMSPLQLGNYNTLRITRFTDHGAYLDGGDVGEILMPKTYVLPEMKPGDEVRVFVYLDQEERLVGTTET”, the “soluble fraction (log2)” value was -0.017.

As for “HMDGAPVTVIKNGEVDVATTMRVGLSASELMFKLRAAGVDEVQIVHRAVLEQNGQLTIIKYGEE”, the “soluble fraction (log2)” value was found to be 0.0259.

Take “HMEAGTVTVTHAAVYIRSGPGVSYPIAGKAAKNDTYTVLQKDGDWFQIRLPQGNTGWIAGWLVETGT”: the “soluble fraction (log2)” value was -0.635.

With “HMKDKSEKTKKLIFEAAFKIIREEGFSELSANKIAQVASVSKGVIFHHFSQMDDLYLFMLDTL”, the “soluble fraction (log2)” value came to 0.255.

With “HMYAGTWISESGQWKYRNDDGSFAKGWFQDLDSRWYYFDANGHMLSDTLTPDGYRLGEDGAWVND”, the “soluble fraction (log2)” value is -0.638.

For “HMFRMTPQRMAILAEVQNAERHLTAAEIYERVRRKYPTIAYGTVYRTLHLLAKHGLIQEFPFGDNASLFDR”, the “soluble fraction (log2)” value amounted to 0.0678.

The values above are taken from the domain aggregation screens of Martell et al. (2025).
